Data published in patent US20100196385A1 (AstraZeneca / MedImmune, published 2010).
One block for each binder: values may come before it.

Legend:
human Dll1 [1] = target: T1, human Dll1 (human, UniProt O00548 18-723); test: FACS, 15 µg/ml, 293T cells with human Dll1
T1 construct: whole, on cells
T1 sequence (looked up): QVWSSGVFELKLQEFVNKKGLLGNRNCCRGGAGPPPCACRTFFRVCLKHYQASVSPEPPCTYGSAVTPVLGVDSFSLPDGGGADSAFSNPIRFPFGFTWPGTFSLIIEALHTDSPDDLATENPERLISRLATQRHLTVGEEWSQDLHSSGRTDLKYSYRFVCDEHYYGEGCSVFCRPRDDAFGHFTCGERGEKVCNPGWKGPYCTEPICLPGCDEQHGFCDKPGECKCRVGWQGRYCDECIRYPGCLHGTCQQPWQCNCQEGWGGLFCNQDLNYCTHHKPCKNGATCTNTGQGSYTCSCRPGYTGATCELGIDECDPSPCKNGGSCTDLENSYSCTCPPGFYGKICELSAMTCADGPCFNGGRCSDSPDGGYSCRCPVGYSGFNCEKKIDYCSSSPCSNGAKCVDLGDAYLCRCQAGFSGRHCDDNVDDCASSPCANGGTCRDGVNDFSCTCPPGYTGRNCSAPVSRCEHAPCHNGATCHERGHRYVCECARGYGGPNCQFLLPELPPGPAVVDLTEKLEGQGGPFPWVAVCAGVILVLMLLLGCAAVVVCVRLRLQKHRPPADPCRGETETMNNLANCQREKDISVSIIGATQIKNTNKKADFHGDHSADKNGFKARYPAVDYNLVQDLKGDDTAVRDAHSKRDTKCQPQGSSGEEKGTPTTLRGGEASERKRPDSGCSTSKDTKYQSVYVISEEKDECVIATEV
Protocol: (§1) The ability of the purified antibodies to bind to human Jagged1 and Dll1 was determined by FACS analysis. […] Cells were resuspended in PBS containing 2% FCS and seeded at 50000 cells/well into V-bottomed plates. Anti-DLL4 antibodies diluted in PBS containing 2% FCS were added at a final concentration of 5 or 15 μg/ml and plates were incubated for 1 h at 4° C. […] Data was analyzed by comparing the shift in geometric mean fluorescence in the mock-transfected cells to that observed in the Jagged1- or Dll1-transfected cells and is shown in Tables 16 and 17.

full length human DLL4 [2] = target: T2, full length human DLL4 (human, UniProt Q9NR61 27-685); test: FMAT, hybridoma supernatant, 293T cells with human DLL4
T2 construct: whole, on cells; also called native DLL4 expressed in HEK293 cells
Protocol: (§2) Cells diluted in PBS containing 2% FBS were seeded at a density of 3000 expressing and 15000 mock transfected cells per well in 384 well plates (Corning Costar, catalog #3712). Immediately after plating, 15 or 20 μl/well of hybridoma supernatants and 10 μl/well of secondary antibody (Goat anti-human IgG Fc Cy5, final concentration 750 ng/ml) were added and plates incubated for 3 h at room temperature prior to reading the fluorescence on the FMAT 8200 instrument (Applied Biosystems). The binding of human Notch1/Fc chimera (R&D systems, catalog #3647-TK), diluted 1:2 from 2.86 μg/ml was used as a positive control for DLL4 and human Notch3/Fc chimera diluted from 10 μg/ml was used a positive control for binding to Jagged1. Results for 12 hybridoma supernatants showing binding of hybridoma supernatants to human/cynomolgus monkey DLL4 and human Jagged are shown in Table 3.

human Dll1 [3] = target: T1, human Dll1; test: FACS, 15 µg/ml, 293T cells with human Dll1 vs mock
Protocol: as §1

human Jagged1 [4] = target: T3, human Jagged1 (human, UniProt P78504 34-1218); test: FACS, 5 µg/ml, 293T cells with human Jagged1 vs mock
T3 construct: whole, on cells
Protocol: as §1

[5] = target: DLL4 extracellular domain (R&D systems, catalog #1506-D4/CF) (UniProt Q9NR61 27-529, limits assumed); test: cell-based or functional assay
full length human DLL4 [6] = target: T2, full length human DLL4; test: FMAT competition, purified antibody vs Alexa-647 human Notch1/Fc, 293T cells with human DLL4
Protocol: To discriminate between the purified antibodies based upon their ability to prevent the interaction between full-length recombinant DLL4 and soluble Notch1/Fc, the following assays were performed. Transfected and untransfected 239T cells were reconstituted in PBS containing 2% FCS and 5000 transfected and 17500 non-transfected cells were plated in 30 μl into wells of a 384-well tissue culture plate (Corning Costar, catalog #3712). Subsequently, 30 μl of purified antibodies, serial diluted from 5 μg/ml hybridoma supernatant was added and plates were incubated at 4° C. for 1 h, at which time 20 μl of 100 ng/ml Alexa-647 labeled human Notch1/Fc was added. After a further 3 h incubation at 4° C., the amount of bound Notch1/Fc was determined by reading the fluorescence in each well using an FMAT 8200 instrument (Applied Biosystems).

full length human DLL4 [7] = target: T2, full length human DLL4; test: FMAT competition, supernatant vs Alexa-647 human Notch1/Fc, 293T cells with human DLL4
Protocol: Transfected and untransfected 239T cells were reconstituted in PBS containing 2% FCS and 5000 transfected and 17500 non-transfected cells were plated in 20 μl into wells of a 384-well tissue culture plate (Corning Costar, catalog #3712). Subsequently, 20 μl of hybridoma supernatant was added and plates were incubated at 4° C. for 1 h, at which time 20 μl of Alexa-647 labeled human Notch1/Fc was added at a final concentration of 6.7 ng/ml. After a further 3 h incubation at 4° C., the amount of bound Notch1/Fc was determined by reading the fluorescence in each well using an FMAT 8200 instrument (Applied Biosystems). Results are expressed as % inhibitions with the minimum inhibition in the assay being determined by the effects of non-DLL4 binding supernatants prepared in a similar way as described in example 2, and the maximum inhibition being defined as the signal obtained in the presence of a saturating concentration of unlabeled Notch1/Fc. N.T.=not tested

human Jagged1 [8] = target: T3, human Jagged1; test: FMAT, hybridoma supernatant, 293T cells with human Jagged1
Protocol: as §2

human Jagged1 [9] = target: T3, human Jagged1; test: FACS, 5 µg/ml, 293T cells with human Jagged1
Protocol: as §1

T2 sequence (Q9NR61 27-685): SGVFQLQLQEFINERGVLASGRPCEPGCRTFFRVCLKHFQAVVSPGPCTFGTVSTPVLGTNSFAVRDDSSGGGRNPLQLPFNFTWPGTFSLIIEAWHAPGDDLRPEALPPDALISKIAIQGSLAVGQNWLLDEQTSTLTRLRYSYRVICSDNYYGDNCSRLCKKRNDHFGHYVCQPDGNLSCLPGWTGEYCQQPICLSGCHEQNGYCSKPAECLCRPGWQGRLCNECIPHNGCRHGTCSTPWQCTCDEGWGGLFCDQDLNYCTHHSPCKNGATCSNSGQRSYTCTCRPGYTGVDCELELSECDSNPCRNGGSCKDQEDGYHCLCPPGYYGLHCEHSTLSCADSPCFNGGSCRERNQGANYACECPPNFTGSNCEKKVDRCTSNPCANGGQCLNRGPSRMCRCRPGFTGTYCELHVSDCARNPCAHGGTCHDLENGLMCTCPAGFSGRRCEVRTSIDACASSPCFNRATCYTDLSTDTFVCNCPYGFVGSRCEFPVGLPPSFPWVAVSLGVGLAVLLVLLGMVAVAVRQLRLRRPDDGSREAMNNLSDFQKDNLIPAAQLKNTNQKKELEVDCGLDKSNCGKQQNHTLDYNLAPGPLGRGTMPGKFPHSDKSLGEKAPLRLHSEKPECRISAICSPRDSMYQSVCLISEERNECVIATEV
T3 sequence (P78504 34-1218): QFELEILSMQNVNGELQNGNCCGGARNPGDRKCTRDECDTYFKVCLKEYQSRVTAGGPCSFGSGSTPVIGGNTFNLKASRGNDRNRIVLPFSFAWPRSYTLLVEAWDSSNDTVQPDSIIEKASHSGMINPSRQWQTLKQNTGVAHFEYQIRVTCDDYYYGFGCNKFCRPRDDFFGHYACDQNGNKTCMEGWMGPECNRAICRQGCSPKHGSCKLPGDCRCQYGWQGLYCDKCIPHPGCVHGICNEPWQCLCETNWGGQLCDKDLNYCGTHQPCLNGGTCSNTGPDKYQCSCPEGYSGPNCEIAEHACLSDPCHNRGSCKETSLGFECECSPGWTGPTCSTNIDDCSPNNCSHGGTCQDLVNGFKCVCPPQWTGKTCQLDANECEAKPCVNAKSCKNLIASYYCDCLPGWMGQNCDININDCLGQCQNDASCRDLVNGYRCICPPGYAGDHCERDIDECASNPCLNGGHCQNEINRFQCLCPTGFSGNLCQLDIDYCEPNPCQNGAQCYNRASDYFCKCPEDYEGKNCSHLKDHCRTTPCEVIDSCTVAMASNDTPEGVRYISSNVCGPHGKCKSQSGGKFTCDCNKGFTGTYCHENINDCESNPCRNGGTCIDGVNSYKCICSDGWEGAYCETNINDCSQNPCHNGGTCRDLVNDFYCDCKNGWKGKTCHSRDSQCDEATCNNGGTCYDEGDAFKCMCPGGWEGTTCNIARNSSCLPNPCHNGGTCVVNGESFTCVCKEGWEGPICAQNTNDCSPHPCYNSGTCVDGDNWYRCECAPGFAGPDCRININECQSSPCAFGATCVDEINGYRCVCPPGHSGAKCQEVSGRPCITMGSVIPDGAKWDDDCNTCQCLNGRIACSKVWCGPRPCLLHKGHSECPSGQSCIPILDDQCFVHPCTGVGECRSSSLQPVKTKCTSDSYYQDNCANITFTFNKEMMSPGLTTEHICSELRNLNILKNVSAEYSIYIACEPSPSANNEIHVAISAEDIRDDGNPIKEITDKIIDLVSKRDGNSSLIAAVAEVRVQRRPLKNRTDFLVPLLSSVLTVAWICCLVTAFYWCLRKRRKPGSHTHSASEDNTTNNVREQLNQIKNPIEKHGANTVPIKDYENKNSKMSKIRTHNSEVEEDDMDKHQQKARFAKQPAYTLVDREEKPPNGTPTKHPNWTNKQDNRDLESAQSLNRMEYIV
Sequence of DLL4 extracellular domain (R&D systems, catalog #1506-D4/CF) (Q9NR61 27-529 limits assumed): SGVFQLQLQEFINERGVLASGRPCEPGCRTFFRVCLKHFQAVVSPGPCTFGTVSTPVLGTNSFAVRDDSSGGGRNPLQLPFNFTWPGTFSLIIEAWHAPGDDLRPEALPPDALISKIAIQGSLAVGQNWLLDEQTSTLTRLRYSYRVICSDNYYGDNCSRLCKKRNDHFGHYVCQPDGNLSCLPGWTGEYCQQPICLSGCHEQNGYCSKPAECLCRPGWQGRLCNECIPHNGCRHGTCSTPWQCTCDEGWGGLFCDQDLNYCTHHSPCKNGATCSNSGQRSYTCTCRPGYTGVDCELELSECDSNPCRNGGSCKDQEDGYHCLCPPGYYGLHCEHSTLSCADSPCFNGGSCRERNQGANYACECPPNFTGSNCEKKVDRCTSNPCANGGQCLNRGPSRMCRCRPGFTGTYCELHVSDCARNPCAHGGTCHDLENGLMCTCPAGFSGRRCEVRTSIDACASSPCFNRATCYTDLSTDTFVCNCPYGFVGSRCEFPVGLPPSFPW

Dll1/293T X Geo mean (human Dll1 [1]): 36.8
Count (full length human DLL4 [2]): 166
FL1 (full length human DLL4 [2]): 9470
FL1 x count (full length human DLL4 [2]): 1.57e+06
Dll1/mock ratio (human Dll1 [3]): 1.06
Jagged1/mock ratio (human Jagged1 [4]): 1.1
% inhibition 1 µg/ml, AVERAGE (HUVEC proliferation on coated DLL4) [5]: 65%
% inhibition 1 µg/ml, N = 1 (HUVEC proliferation on coated DLL4) [5]: 50%
% inhibition 1 µg/ml, N = 2 (HUVEC proliferation on coated DLL4) [5]: 80%
% inhibition 10 µg/ml, AVERAGE (HUVEC proliferation on coated DLL4) [5]: 90%
% inhibition 10 µg/ml, N = 1 (HUVEC proliferation on coated DLL4) [5]: 74%
% inhibition 10 µg/ml, N = 2 (HUVEC proliferation on coated DLL4) [5]: 106%
% inhibition at 0.020 nM (full length human DLL4 [6]): -1%
% inhibition at 0.070 nM (full length human DLL4 [6]): 7%
% inhibition at 0.21 nM (full length human DLL4 [6]): -1%
% inhibition at 0.62 nM (full length human DLL4 [6]): 19%
% inhibition at 1.9 nM (full length human DLL4 [6]): 39%
% inhibition at 5.6 nM (full length human DLL4 [6]): 82%
% inhibition at 16.7 nM (full length human DLL4 [6]): 104%
IC50 (full length human DLL4 [6]): 2.94 nM
% inhibition n = 1 (full length human DLL4 [7]): 105%
% inhibition n = 2 (full length human DLL4 [7]): 120%
% inhibition n = 3 (full length human DLL4 [7]): 142%
Mean % inhibition (full length human DLL4 [7]): 122%
Count (human Jagged1 [8]): 1
FL1 (human Jagged1 [8]): 1940
FL1 x count (human Jagged1 [8]): 1940
Jagged1/293T X Geo mean (human Jagged1 [9]): 16.4
B1: 3A7 (antibody, IgG4, V domains shown)
VH: EVQVVESGGGLVQPGGSLRLSCEASGFTFSNYWMIWVRQAPGKGLEWVASIKEDGSEKYYVDSVKGRFTISRDNAKSSLYLQMNSLRAEDTAVYYCVRDWELRGHYYYHGMDVWGQGTTVTVSS
VL: DIQMTQSPSSLSASVGDRVTITCRASLDIRNDLGWFLQKPGKAPKRLIYAASSLQSGVPSRFSGSGSGTEFTLTINSLQPEDFATYYCLQHRNYPFTFGPGTKVDFK
notes: Fully human; also used where no isotype is printed

Dll1/293T X Geo mean (human Dll1 [1]): 30.6
Count (full length human DLL4 [2]): 206
FL1 (full length human DLL4 [2]): 11000
FL1 x count (full length human DLL4 [2]): 2.27e+06
Dll1/mock ratio (human Dll1 [3]): 1.17
Jagged1/mock ratio (human Jagged1 [4]): 1.04
% inhibition 1 µg/ml, AVERAGE (HUVEC proliferation on coated DLL4) [5]: 31%
% inhibition 1 µg/ml, N = 1 (HUVEC proliferation on coated DLL4) [5]: 20%
% inhibition 1 µg/ml, N = 2 (HUVEC proliferation on coated DLL4) [5]: 41%
% inhibition 10 µg/ml, AVERAGE (HUVEC proliferation on coated DLL4) [5]: 44%
% inhibition 10 µg/ml, N = 1 (HUVEC proliferation on coated DLL4) [5]: 38%
% inhibition 10 µg/ml, N = 2 (HUVEC proliferation on coated DLL4) [5]: 49%
% inhibition at 0.020 nM (full length human DLL4 [6]): -1%
% inhibition at 0.070 nM (full length human DLL4 [6]): 5%
% inhibition at 0.21 nM (full length human DLL4 [6]): -3%
% inhibition at 0.62 nM (full length human DLL4 [6]): 20%
% inhibition at 1.9 nM (full length human DLL4 [6]): 40%
% inhibition at 5.6 nM (full length human DLL4 [6]): 89%
% inhibition at 16.7 nM (full length human DLL4 [6]): 117%
IC50 (full length human DLL4 [6]): 3.33 nM
% inhibition n = 1 (full length human DLL4 [7]): 106%
% inhibition n = 2 (full length human DLL4 [7]): 145%
% inhibition n = 3 (full length human DLL4 [7]): 147%
Mean % inhibition (full length human DLL4 [7]): 133%
Count (human Jagged1 [8]): 2
FL1 (human Jagged1 [8]): 4720
FL1 x count (human Jagged1 [8]): 9450
Jagged1/293T X Geo mean (human Jagged1 [9]): 18.7
B2: 4B3 (antibody, IgG4, V domains shown)
VH: QVQLVQSGAEVRKSGASVKVSCKASGYSFTTYDINWVRQATGQGLEWMGWMNPNSGYTDYAQKFQGRVTLTRNMSIDTAYMELSSLRSEDTAVYYCARAYYYDSSAYYLFDYWGQGTLVTVSS
VL: DIQMTQSPSSLSASVGDRVTITCRASQGISNYLAWFQQKPGKAPKSLIYAASSLQSGVPSKFSGSGSGTDFTLTISSLQPEDFATYFCQQYISYPLTFGGGTKVEI
notes: as for B1
